Results on two molecules are retold here after patent WO2001079494A1.

The assay addresses human TPO receptor (MPL) expressed on Ba/F3 cells (human) (UniProt P40238). Description: cell-based or functional assay.

B1: 12B5 antibody (IgG) (antibody, from another filing)
scFv: QVQLVQSGGGLVRPGGSLSLSCAVSGITLRTYGMHWVRQAPGKGLEWVAGISFDGRSEYYADSVQGRFTISRDSSKNTLYLQMNSLRAEDTAVYYCARGAHYGFDIWGQGTMVTVSSGGGGTGGGGSGGGGSDIQMTQSPSTLSASIGDRVTITCRASEGIYHWLAWYQQKPGKAPKLLIYKASSLASGAPSRFSGSGSGTDFTLTISSLQPDDFATYYCQQYSNYPLTFGGGTKLEIK
Molecule B1 had an ED50, proliferation of BaF/Mpl cells (WST-8) of 0.029 µM.

B2: 12B5 Fab (Fab, from another filing)
scFv: B1 scFv
B2 returned an ED50, proliferation of BaF/Mpl cells (WST-8) of 34.7 µM.
